In patent publication US20260274955A1 (JANUX THERAPEUTICS, published 2026):

target: T1, Anti-CD28 Fab (SEQ ID NOs: 202, 203); assay: phage ELISA, Fab on plate;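 note: crude clonal phage supernatants added to wells pretreated with blocking buffer with or without CD28 antigen, then bound phage read out via HRP-linked anti-M13 antibody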
T1 construct: biotinylated and captured on neutravidin coated plates in the phage ELISA
T1 sequence (VH, as listed by the source, chain 1 of 2): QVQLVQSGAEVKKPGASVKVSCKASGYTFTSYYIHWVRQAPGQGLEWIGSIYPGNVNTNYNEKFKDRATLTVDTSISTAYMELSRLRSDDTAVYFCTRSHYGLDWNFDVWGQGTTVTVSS
T1 sequence (VL, as listed by the source, chain 2 of 2): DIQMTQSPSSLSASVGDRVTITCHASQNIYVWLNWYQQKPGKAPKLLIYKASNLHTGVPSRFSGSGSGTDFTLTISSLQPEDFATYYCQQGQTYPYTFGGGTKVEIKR

Binder | Anti-CD28 Fab (SEQ ID NOs: 202, 203) signal
YCDGHEQQYMEKCL [Phage-723] | 1.14
YCEGHVAEYRAKCL [Phage-720] | 1.15
YCDGHLQMYMMKCL [Phage-724] | 1.14
YCEGHAAAYMGKCL [Phage-722] | 1.14
YCEGHAEQYMKKCL [Phage-728] | 1.12
YCQGHLPQYIEKCL [Phage-721] | 1.14
YCVGHSEQYMAKCL [Phage-726] | 1.13
YCEGHLYEYMWKCL [Phage-725] | 1.13

target: T2, anti-CD28 Fab (SEQ ID NOs: 202, 203); assay: phage binding ELISA; biotinylated Fab on neutravidin plate;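 note: clonal phage supernatants added to Fab wells pretreated with CD28 antigen or with blocking buffer only, bound phage read out via HRP-linked anti-M13 antibody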
T2 construct: biotinylated and captured on neutravidin coated plates in the phage ELISA
T2 sequence (VH, as listed by the source, chain 1 of 2): as the sequence (VH, as listed by the source, chain 1 of 2) above
T2 sequence (VL, as listed by the source, chain 2 of 2): as the sequence (VL, as listed by the source, chain 2 of 2) above
Protocol: Clonal phage were harvested as crude supernatants and screened via standard ELISAs. […] Prior to the addition of clonal phage, wells were incubated with blocking buffer and CD28 antigen or blocking buffer alone. Without washing or aspirating, clonal phage supernatants were then added to the wells and incubated for a short time. Wells were then washed followed by detection of bound phage using a horse radish conjugated anti-M13 antibody.

Binder | Anti-CD28 Fab (SEQ ID NOs: 202, 203) signal
YCDGHLQIYLWKCL [Phage-426] | 1.72
YCDGHAAEYMDKCL [Phage-428] | 1.72
YCDGHTEEYMDKCL [Phage-360] | 1.82
YCDGHHIEYLAKCL [Phage-402] | 1.75
YCDGHAIQYIGKCL [Phage-422] | 1.72
YCDGHLPMYFAKCM [Phage-351] | 1.83
YCDGHSAEYMEKCI [Phage-356] | 1.83
YCEGHLAVYMQKCL [Phage-301] | 1.91
YCAGHTQEYMYKCL [Phage-438] | 1.7
YCEGHLPQYFMKCL [Phage-440] | 1.7
YCEGHLAQYMWKCL [Phage-300] | 1.91
YCEGHLAQYMNKCL [Phage-396] | 1.76
YCEGHSVQYMQKCL [Phage-429] | 1.71
YCDGHAPVYMAKCL [Phage-400] | 1.75
YCDGHSWEYMEKCL [Phage-441] | 1.7
YCEGHSEEYMSKCL [Phage-304] | 1.91
YCDGHSSMYMAKCL [Phage-361] | 1.82
YCDGHLPLYMHKCL [Phage-357] | 1.82
YCDGHSLAYIAKCL [Phage-437] | 1.7
YCDGHSLQYMDKCL [Phage-405] | 1.75
YCEGHAIEYLAKCL [Phage-409] | 1.74
YCEGHSPMYMQKCM [Phage-355] | 1.83
YCDGHLEEYMVKCM [Phage-413] | 1.73
YCDGHSGVYMWKCL [Phage-420] | 1.73
YCDGHSSEYIVKCL [Phage-352] | 1.83
YCEGHSSEYMEKCL [Phage-302] | 1.91
YCAGHSMEYMAKCL [Phage-435] | 1.71

Binder | Anti-CD28 Fab (SEQ ID NOs: 202, 203) signal
YCDGHLQIYMHKCL [Phage-434] | 1.71
YCDGHLDIYLAKCL [Phage-303] | 1.91
YCDGHLPEYIFKCL [Phage-416] | 1.73
YCDGHTQAYIQKCL [Phage-421] | 1.73
YCDGHAEKYMQKCL [Phage-408] | 1.74
YCDGHLPEYFLKCL [Phage-436] | 1.71
YCDGHVQEYMQKCL [Phage-397] | 1.76
YCDGHIGEYMVKCL [Phage-395] | 1.76
YCHGHLQEYMAKCL [Phage-398] | 1.76
YCDGHYPEYMSKCL [Phage-406] | 1.75
YCEGHAPQYLNKCL [Phage-358] | 1.82
YCDGHLVEYRGKCL [Phage-432] | 1.71
YCAGHLPEYLDKCL [Phage-430] | 1.71
YCEGHSEMYMKKCL [Phage-425] | 1.72
YCDGHKPQYMEKCL [Phage-394] | 1.76
YCDGHSREYMVKCL [Phage-431] | 1.71
YCAGHSQEHIQKCL [Phage-415] | 1.73
YCQGHLPVYMEKCL [Phage-427] | 1.72
YCDGHAEEYLWKCL [Phage-418] | 1.73
YCDGHSPQYMQKCL [Phage-390] | 1.76
YCEGHSAEYIFKCL [Phage-354] | 1.83
YCEGHSAEFMTKCL [Phage-363] | 1.81
YCEGHLQTYMAKCL [Phage-414] | 1.73
YCDGHAAEFMMKCL [Phage-423] | 1.72
YCDGHVEPYLSKCL [Phage-393] | 1.76
YCDGHAREYMTKCL [Phage-359] | 1.82
